According to PMC12312386, “Multiple transactivation domains of EZH2 bind to the TAZ2 domain of p300 and stimulate the acetyltransferase function of p300” (Biochemical Journal, 2025):
Numbering of substitutions follows the chain as printed. Names may count otherwise.

Legend:
GST-p300TAZ2 = assay: Mass photometry (MP) of GST-p300TAZ2 with EZH2TAD constructs; type: binding, human; details: 20 nM GST-p300TAZ2 alone
Protocol: [37]. […] After induction with isopropyl b-D-1-thiogalactopyranoside (IPTG), harvesting, and lysis in buffer [50 mM Tris pH 7.0, 1 M NaCl, 5 mM dithiothreitol (DTT), 1 mM phenylmethanesulfonylfluoride (PMSF) and DNase] by sonication, the proteins were purified on glutathione agarose beads (Pierce) and eluted with buffer containing reduced L-glutathione (Fisher). The GST tag was either cleaved with TEV protease overnight at 22°C or kept intact during subsequent purification steps. […] The EZH2TAD1 ([…]) construct was generated by deletion using Q5 Hot Start High-Fidelity kit (NEB) and confirmed by DNA sequencing. Both constructs were expressed in E. coli Rosetta-2 (DE3) pLysS cells grown in LB media and induced at an OD600 of 0.6-0.8 with 1 mM IPTG for 16 h at 16°C. Cells were harvested by centrifugation, suspended in buffer (50 mM Tris pH 7.5, 500 mM NaCl, 1% CHAPS, 2 mM DTT, 1 mM PMSF, Roche cOmplete Protease Inhibitor Cocktail, and DNase), and lysed by sonication. […] When necessary, EZH2TAD constructs were further purified using a Superdex 200 Increase 10/300 GL column (Cytiva) with monitoring at 205 and 280 nm. […] To overcome the minimum size limit, a GST-fusion construct was used for one of the components in each sample. […] Ten microliter of each sample was loaded into the sample wells of the silicon cassettes assembled onto MassGlass UC coverslips (Refeyn, Ltd.). […]

[1] = system: FLAG-HA-tagged p300 catalytic core (aa 1035–1830 of p300); assay: Histone acetyltransferase (HAT) assay, Western blot, recombinant nucleosome substrate; type: biochemical; details: 1 μg p300 core, 2.5, 5 or 10 μg GST-tagged TADs, 1 μg nucleosome, 15 min
Protocol: Histone acetyltransferase assay
For HAT assays, FLAG-HA-tagged p300 core (aa 1035–1830 of p300) in a pCDH vector was expressed in 293 T cells for two days. Cells were lysed in lysis buffer (50 mM Tris-HCl pH 7.5, 300 mM NaCl, 1.5 mM MgCl2, 1 mM EDTA, 1% Triton100, 10% glycerol, 1 mM PMSF, and protease inhibitors) and sonicated. Cell lysates were incubated with anti-Flag M2 beads (Sigma) at 4° for 4 h. The beads were then washed three times with buffer (50 mM Tris-HCl pH 7.5, 500 mM NaCl, 1.5 mM MgCl2, 0.2 mM EDTA, 0.1% NP40, 10% glycerol, and 1 mM PMSF), and the protein was eluted with elution buffer (50 mM Tris-HCl pH 7.5, 300 mM NaCl, 1 mM DTT, 10% glycerol, and 0.4 mg/ml Flag peptide).
GST-tagged EZH2TADs (aa 119–267), EZH1TADs (aa 120–280), F176A/F237A EZH1TADs (EZH1 2A), and F146A/F176A/F237A/Y257A EZH1TADs (EZH1 4A) constructs in the pGEX-6p-1 vector were transformed into RosettaTM2 (DE3) pLysS competent cells (Novagen). Protein production was induced by incubating with 0.4 mM IPTG at 16°C for 20 h in LB. Cell pellets were resuspended in lysis buffer (50 mM Tris-HCl pH 8.0, 300 mM NaCl, 1 mM PMSF, and 1 × cOmpleteTM EDTA-free Protease Inhibitor Cocktail) and lysed by sonication. Lysates were centrifuged at 17,000 g for 15 min, and supernatants were incubated with Glutathione Sepharose® 4B beads (Sigma) at 4°C for 2 h. Beads were washed with lysis buffer twice, and proteins were eluted with elution buffer (50 mM Tris-HCl pH 8.0, 150 mM NaCl, 10% glycerol, and 15 mg/ml GSH).
Purified FLAG-HA-tagged p300 catalytic core fragment (1 μg) was incubated with increasing amounts of GST-tagged EZH2TADs and GST-tagged EZH1TADs (2.5, 5, or 10 μg) and the nucleosome (1 μg) in HAT reaction buffer (50 mM Tris-HCl pH 8.0, 100 mM NaCl, 10% glycerol, 1 mM DTT, […], and 1× cOmplete EDTA-free Protease Inhibitor Cocktail) at 30°C for 15 min. Reactions were stopped by boiling at 95°C for 5 min in 2×SDS loading buffer, and samples were analyzed by SDS-PAGE and Western blot. […]

B1: GST-p300TAZ2: GST-tagged human p300 TAZ2 domain, aa 1722–1812 (protein)
chain: AWTQSPGDSRRLSIQRCIQSLVHACQCRNANCSLPSCQKMKRVVQHTKGCKRKTNGGCPICKQLIALCCYHAKHCQENKCPVPFCLNIKQK
modifications: left off: GST, end not stated, kept
- oligomeric state in the apo-state (GST-p300TAZ2): exists in a dimeric form
- MP peak, apo GST-p300TAZ2 (GST-p300TAZ2; Figure 5a, room temperature, 50 mM Tris pH 7.5, 150 mM NaCl, 5 mM DTT): ~ 80 kDa

B2: EZH1 WT: GST-tagged EZH1TAD1-TAD2-TAD3 (aa 120–280) (protein)
chain: NFMVEDETVLCNIPYMGDEVKEEDETFIEELINNYDGKVHGEEEMIPGSVLISDAVFLELVDALNQYSDEEEEGHNDTSDGKQDDSKEDLPVTRKRKRHAIEGNKKSSKKQFPNDMIFSAIASMFPENGVPDDMKERYRELTEMSDPNALPPQCTPNIDGP
modifications: left off: GST, end not stated, kept
- H3K18 acetylation by p300 core ([1]; 100 mM acetyl-CoA, 50 mM Tris-HCl pH 8.0, 30°C, H3K18ac Western blot): dose-dependent increase in H3K18 and H3K27 acetylation
- H3K27 acetylation by p300 core ([1]; 100 mM acetyl-CoA, 50 mM Tris-HCl pH 8.0, 30°C, H3K27ac Western blot): dose-dependent increase in H3K18 and H3K27 acetylation

B3: EZH1 2A: GST-tagged F176A/F237A mutant of EZH1TAD1-TAD2-TAD3 (aa 120–280) (protein)
chain: B2 chain with F57A, F118A
modifications: left off: GST, end not stated, kept
- stimulation of p300 enzymatic activity ([1]; mutants compared with EZH1 WT, 30°C, H3K18ac and H3K27ac Western blot): stimulation of the p300 enzymatic activity was decreased
